2 substances from paper PMC6201588, “Molecular cloning and characterization of vanillin dehydrogenase from Streptomyces sp. NL15-2K” (BMC Microbiology, 2018) can be followed below.

Data set [1] concerns NC(=O)c1ccc[n+]([C@@H]2O[C@H](COP(=O)(O)OP(=O)(O)OC[C@H]3O[C@@H](n4cnc5c(N)ncnc54)[C@H](O)[C@@H]3O)[C@@H](O)[C@H]2O)c1. The data set is described as follows: purified protein. The note with it: co-substrate vanillin, pH 9.5, varied: cofactor.
The subject of data set [2] is COc1cc(C=O)ccc1O. Put plainly: purified protein. The note with it: co-substrate NAD+ (0.5 mM in standard assay), 30 °C, pH 9.5.
For data set [3], the target named is vanillin dehydrogenase from Streptomyces sp. NL15-2K (recombinant) (Streptomyces sp. NL15-2K). Put plainly: SEC; gel filtration of purified recombinant VDH on Superdex 200 10/300 GL, calibrated with thyroglobulin, ferritin, aldolase, conalbumin and ovalbumin; native mass compared with the subunit mass by SDS-PAGE. For orientation: SEC sorts molecules by how far they enter the pores of the column.

The term Km denotes the concentration of substrate that gives half-maximal velocity. Broadly, the kcat/Km is the turnover number divided by the Michaelis constant. On to “VDH (vanillin dehydrogenase) from Streptomyces sp. NL15-2K (Streptomyces sp. NL15-2K; S2A)”, for which, in data set [1], the Km is 647 ± 40.0 µM and the kcat is recorded as 23.45 ± 0.59 s^− 1. For the same substance, in data set [2], the Km stood at 8.47 ± 0.91 µM, the kcat is 9.35 ± 0.77 s⁻¹ and the kcat/Km was found to be 1.11e+06 ± 100000 M⁻¹ s⁻¹.

One may read the stoichiometry N as a count of units in the complex or per binding partner. On to “vanillin dehydrogenase from Streptomyces sp. NL15-2K (recombinant) (enzyme)”, for which, in data set [3], the stoichiometry N is 4.
